We go through two substances from patent publication US20050075291.

This data set concerns the target reconstituted tissue factor (Innovin, Dade) (UniProt P13726).
UniProt P13726, sequence (P13726 33-295): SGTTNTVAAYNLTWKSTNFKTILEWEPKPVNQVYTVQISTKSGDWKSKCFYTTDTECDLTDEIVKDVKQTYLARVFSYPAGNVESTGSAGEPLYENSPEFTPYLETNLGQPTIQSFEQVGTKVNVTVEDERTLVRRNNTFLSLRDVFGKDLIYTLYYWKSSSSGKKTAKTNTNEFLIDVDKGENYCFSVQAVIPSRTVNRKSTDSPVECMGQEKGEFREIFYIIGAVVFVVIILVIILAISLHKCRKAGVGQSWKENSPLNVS

As to Human factor VIIa-T9Q11E33, the “competition assay (clotting time as a function of added FFR-VIIa, 0 to 3.5 nM)” value is “Human factor VIIa-T9Q11E33 exhibited a severe loss of competitive binding affinity”.

In the case of “factor VII with leucine for phenylalanine at position 5 (which contained the Q11E33 mutations)”, the “competition with active-site modified VIIa (0-3.2 nM), clotting time” value was “had much lower activity than the Q11E33 mutant”.
